A value given as a limit tells only on which side of the number the result lay.

For test [1], the target named is envelope glycoprotein gp120 of HIV-1 laboratory strain 89.6 (HIV-1 89.6 strain) (UniProt Q73372). Nature of the test: cell-based or functional assay.
In test [2] the target is envelope glycoprotein gp120 of HIV-1 laboratory strain IIIB (HIV-1 IIIB strain). In words: cell-based or functional assay.
For test [3], the target named is envelope glycoprotein gp120 of HIV-1 laboratory strain MN (HIV-1 MN strain) (UniProt P05877). In words: cell-based or functional assay.
In test [4] the target is envelope glycoprotein gp120 of HIV-1 laboratory strain AD8 (HIV-1 AD8 strain). Nature of the test: cell-based or functional assay.
Test [5] concerns the target envelope glycoprotein gp120 of HIV-1 laboratory strain SF2 (HIV-1 SF2 strain). Nature of the test: cell-based or functional assay.
Test [6] deals with V3/β-Gal from patients' HIV-1 clones with IGPARAF in the middle portion of V3 region (HIV-1 from patients). In words: sandwich ELISA: V3/β-Gal (200 ng/ml) captured by anti-β-Gal antibody, 1 µg/ml KD-247. On the technique in general: ELISA stands for enzyme-linked immunosorbent assay.
Test [7] concerns the target V3/β-Gal from patients' HIV-1 clones with IGPGRSF in the middle portion of V3 region (HIV-1 from patients). Described as above.
The target in test [8] is V3/β-Gal from patients' HIV-1 clones with IGPGRTF in the middle portion of V3 region (HIV-1 from patients). The description is as above.
Test [9] concerns the target V3/β-Gal from patients' HIV-1 clones with IGPGRAF in the middle portion of V3 region (HIV-1 from patients). The test is described as above.
Test [10] addresses V3/β-Gal from patients' HIV-1 clones with VGPGRAL in the middle portion of V3 region (HIV-1 from patients). The test is described as above.
The target of test [11] is V3/β-Gal from patients' HIV-1 clones with IGPGRAL in the middle portion of V3 region (HIV-1 from patients). Described as above.
The target of test [12] is V3/β-Gal from patients' HIV-1 clones with IGPGRAI in the middle portion of V3 region (HIV-1 from patients). Described as above.

Turning to “KD-247, a humanized monoclonal antibody to PND region”, the Neutralizing activity IC50 (p24 antigen in PBMC culture) in [1] was 0.2 µg/mL; in test [2] it was over 50 µg/mL; in test [3], 0.1 µg/mL; in test [4], 5 µg/mL; in test [5], 1 µg/mL. Further, the Neutralizing activity IC90 (p24 antigen in PBMC culture) is 2.5 µg/mL in test [1]; over 50 µg/mL in test [2]; 1 µg/mL in test [3]; 10 µg/mL in [4]; 5 µg/mL in [5]. In addition, the relative binding (% of V3/β-Gal from MN strain) in [6], in test [7], in test [8], in test [9], in test [10] and in [11] was over 100% throughout. In test [12], this substance displayed a relative binding (% of V3/β-Gal from MN strain) of over 100%.
